Tests used:
[1] = target: T1, human TIM-3 on CHOK1 stable cell line (CHOK1-hTIM-3) (human, UniProt Q8TDQ0 22-301); assay: FACS, CHOK1-hTIM-3 cells, 0.064 nM antibody
T1 sequence: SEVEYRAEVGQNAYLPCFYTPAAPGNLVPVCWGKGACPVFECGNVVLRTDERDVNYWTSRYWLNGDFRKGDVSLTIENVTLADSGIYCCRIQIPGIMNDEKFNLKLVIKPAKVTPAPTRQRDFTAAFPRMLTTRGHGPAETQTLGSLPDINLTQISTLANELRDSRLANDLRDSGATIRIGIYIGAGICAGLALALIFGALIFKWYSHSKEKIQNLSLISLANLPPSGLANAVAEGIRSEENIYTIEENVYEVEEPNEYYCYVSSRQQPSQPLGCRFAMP

[2] = target: T2, human TIM-3 extracellular domain protein with hFc tag (hTIM-3-hFc) (human, UniProt Q8TDQ0 22-200); assay: ELISA, coated human TIM-3 ECD protein, 66.667 nM antibody
T2 construct: not shown: human IgG Fc fragment (hFc) of the pCpC vector
T2 sequence: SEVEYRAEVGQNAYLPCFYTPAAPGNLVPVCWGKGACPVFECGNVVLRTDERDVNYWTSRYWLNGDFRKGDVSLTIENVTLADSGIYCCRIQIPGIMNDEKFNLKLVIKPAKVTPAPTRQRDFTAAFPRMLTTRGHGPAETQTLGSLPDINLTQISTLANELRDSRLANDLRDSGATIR

[3] = target: T3, murine TIM-3 extracellular domain protein with hFc tag (mTIM-3-hFc) (mouse, UniProt Q8VIM0 29-191); assay: ELISA, coated mouse TIM-3 ECD protein, 66.667 nM antibody
T3 construct: also called mouse TIM-3 extracellular domain protein; not shown: human IgG Fc fragment (hFc) of the pCpC vector
T3 chain: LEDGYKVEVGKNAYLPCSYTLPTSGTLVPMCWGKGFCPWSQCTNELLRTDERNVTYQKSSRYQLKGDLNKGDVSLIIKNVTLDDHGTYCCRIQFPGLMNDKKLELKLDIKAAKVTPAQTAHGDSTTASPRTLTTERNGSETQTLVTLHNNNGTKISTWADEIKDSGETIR

[4] = target: T4, monkey TIM-3 extracellular domain protein with hFc tag (cTIM-3-hFc) (monkey); assay: ELISA, coated monkey TIM-3 ECD protein, 0.0001 nM antibody
T4 construct: not shown: human IgG Fc fragment (hFc) of the pCpC vector
T4 chain: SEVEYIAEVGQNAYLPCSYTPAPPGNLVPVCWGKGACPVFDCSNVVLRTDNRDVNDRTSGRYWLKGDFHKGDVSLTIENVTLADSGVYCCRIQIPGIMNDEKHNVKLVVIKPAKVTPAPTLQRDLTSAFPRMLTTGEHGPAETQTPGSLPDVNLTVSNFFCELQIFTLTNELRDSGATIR

[5] = target: T4, monkey TIM-3 extracellular domain …; assay: ELISA, coated monkey TIM-3 ECD protein, 0.0007 nM antibody

B1: 39E5H1 fully human TIM-3 antibody (human IgG4, kappa) (antibody, V domains shown)
VH: EVQLVESGGGLVQPGGSLRLSCAASGFTFSSYWMSWVRQAPGKGLEWVANIKRGGSERYYVDSVKGRFTISGDNAKNSVYLQMNSLRAEDTAVYYCARGSNWFDPWGQGTLVTVSS
VL: ETVMTQSPAILSVSPGERATLSCRASQSVYSNLAWYQQKLGQAPRLLIYDASTRATGIPARFSGSGSGTEFTLTISSLQSEDFAVYYCQQYNNWPITFGQGTRLEIK
[1]
  Mean fluorescence intensity: 27
[2]
  OD450: 3.01
[3]
  OD450: 1.28
[4]
  OD450: 0.17
[5]
  OD450: 0.18
